The source of these data is paper PMC9491089.

Assay [1] deals with recombinant P. xylostella BJSP-1-GST fusion protein (basic juvenile hormone-suppressible protein 1-like) (P. xylostella). The experiment in a line: ELISA; plates coated with BJSP-1-GST (8 μg/well, 4°C overnight); increasing concentrations of Cry7Ab4 toxic core added; detected with anti-His antibody.
In assay [2] the target is recombinant His-tagged Cry7Ab4 toxic core (residues 1-637) (Bacillus thuringiensis). The experiment in a line: ELISA; plates coated with Cry7Ab4 toxic core (8 μg/well, 4°C overnight); increasing concentrations of BJSP-1-GST added; detected with anti-GST antibody. (In general: An ELISA detects its analyte on a solid surface through an enzyme-linked reagent.)

For the substance “recombinant His-tagged Cry7Ab4 toxic core (residues 1-637) (domain or fragment)”, in assay [1], the concentration at which binding was saturated worked out at 16 µg/mL. Take “recombinant P. xylostella BJSP-1-GST fusion protein (basic juvenile hormone-suppressible protein 1-like) (natural protein)”: the concentration at which binding was saturated in assay [2] was found to be 64 µg/mL.
